This is an account of results in US20190031718A1.

Assay [1] concerns the target troponin inhibitory peptide-myoglobin. The assay is described as follows: BLI, biotinylated TAT-troponin on streptavidin sensors, troponin inhibitory peptide-myoglobin as analyte (1 µM to 63 nM), one-state association-then-dissociation fit. (BLI is a label-free optical method that tracks binding on a fibre tip over time.)
Assay [2] shares this target. The assay is described as follows: BLI, sensor exposed to the highest analyte concentration, then dipped into buffer with EDTA.
The target in assay [3] is CBS-myoglobin. Described as above.
Assay [4] concerns the target CBS-myoglobin. The assay is described as follows: BLI, dissociation in buffer with EDTA.
Assay [5] addresses CBS-myoglobin. The assay is described as follows: BLI, biotinylated CPP-adapter on streptavidin sensors, CBS-myoglobin as analyte (1 µM to 63 nM), one-state association-then-dissociation fit.
The target in assay [6] is TAT-CaM (HIV; human). The experiment in a line: BLI, dissociation after moving sensors to buffer with 10 mM EDTA (1 µM sample).
Assay [7] deals with TAT-CaM (HIV; human). The assay is described as follows: BLI (Octet QK), biotinylated TAT-CaM on streptavidin sensors, cargo as analyte, global 1:1 association-then-dissociation fit.
The target of assay [8] is TAT-CaM (HIV; human). The experiment in a line: BLI, dissociation upon exposure to EDTA.
The target of assay [9] is TAT-CaM (HIV; human). The experiment in a line: BLI (Octet QK), biotinylated TAT-CaM on streptavidin sensors, eNOS as analyte, global 1:1 association-then-dissociation fit.

endothelial nitric oxide synthase (enzyme), sequence (P29473 2-1205): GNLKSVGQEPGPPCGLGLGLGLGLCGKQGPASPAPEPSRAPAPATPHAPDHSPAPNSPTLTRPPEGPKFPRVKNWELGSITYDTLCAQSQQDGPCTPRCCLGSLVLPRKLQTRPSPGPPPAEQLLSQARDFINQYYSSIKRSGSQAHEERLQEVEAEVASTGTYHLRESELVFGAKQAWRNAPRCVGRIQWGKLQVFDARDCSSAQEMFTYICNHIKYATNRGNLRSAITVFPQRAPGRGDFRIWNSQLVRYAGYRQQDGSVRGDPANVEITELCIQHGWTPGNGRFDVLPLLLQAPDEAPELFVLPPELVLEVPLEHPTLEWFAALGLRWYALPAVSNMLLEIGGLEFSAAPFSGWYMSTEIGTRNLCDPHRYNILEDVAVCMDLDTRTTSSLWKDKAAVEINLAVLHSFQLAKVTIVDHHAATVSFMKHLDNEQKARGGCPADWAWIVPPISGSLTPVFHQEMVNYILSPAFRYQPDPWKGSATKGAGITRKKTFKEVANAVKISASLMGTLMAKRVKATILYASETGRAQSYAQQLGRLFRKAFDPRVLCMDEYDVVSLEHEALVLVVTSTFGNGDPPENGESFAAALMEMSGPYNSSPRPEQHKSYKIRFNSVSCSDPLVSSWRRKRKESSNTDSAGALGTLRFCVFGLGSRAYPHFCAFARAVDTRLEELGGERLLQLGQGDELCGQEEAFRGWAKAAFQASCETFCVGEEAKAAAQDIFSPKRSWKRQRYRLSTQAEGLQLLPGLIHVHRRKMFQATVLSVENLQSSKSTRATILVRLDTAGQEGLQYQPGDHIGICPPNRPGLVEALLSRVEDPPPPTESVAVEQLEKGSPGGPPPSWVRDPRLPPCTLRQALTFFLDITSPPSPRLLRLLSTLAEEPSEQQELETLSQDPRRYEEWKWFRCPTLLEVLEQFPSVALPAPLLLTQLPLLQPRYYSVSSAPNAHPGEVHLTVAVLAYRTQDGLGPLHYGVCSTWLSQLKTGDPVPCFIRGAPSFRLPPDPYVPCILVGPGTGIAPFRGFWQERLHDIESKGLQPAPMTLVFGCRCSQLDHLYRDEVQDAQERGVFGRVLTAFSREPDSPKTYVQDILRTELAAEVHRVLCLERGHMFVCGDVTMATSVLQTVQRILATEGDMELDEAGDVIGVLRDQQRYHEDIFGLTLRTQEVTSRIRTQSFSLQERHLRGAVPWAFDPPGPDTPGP
CBS-HRP, sequence (P00433 31-338): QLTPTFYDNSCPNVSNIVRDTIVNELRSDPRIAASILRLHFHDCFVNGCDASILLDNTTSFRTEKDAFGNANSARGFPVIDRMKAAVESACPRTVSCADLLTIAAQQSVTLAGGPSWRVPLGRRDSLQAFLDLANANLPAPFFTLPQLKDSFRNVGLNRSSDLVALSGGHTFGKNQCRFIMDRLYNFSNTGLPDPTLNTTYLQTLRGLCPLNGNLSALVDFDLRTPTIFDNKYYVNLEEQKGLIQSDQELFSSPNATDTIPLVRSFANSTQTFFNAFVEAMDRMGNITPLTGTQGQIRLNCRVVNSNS

In [1], TAT-troponin displayed a kon of 3700 M⁻¹ s⁻¹. Further, the koff (EDTA) in [2] amounted to 0.018 s⁻¹.

“TAT-calmodulin like protein 3 (from UniProt P27482 1-149)” gave a koff (EDTA) with CBS-myoglobin [3] of 0.07 s⁻¹. The koff (EDTA) in the assay with CBS-myoglobin [4] turned out to be 0.1 s⁻¹. In addition, in the assay with CBS-myoglobin [5], the Kd was 29.8 nM, the koff came out at 0.00018 s⁻¹ and the on-rate constant (kon) was 6100 M⁻¹ s⁻¹.

In the assay with TAT-CaM (HIV; human) [6], CBS-β-Gal (enzyme) showed a koff (EDTA) of 0.05 s⁻¹. In addition, in the assay with TAT-CaM (HIV; human) [7], the Kd amounted to 73 nM, the koff came to 0.00067 s⁻¹ and the kon is 9200 M⁻¹ s⁻¹. The substance further returned a koff (EDTA) with TAT-CaM (HIV; human) [8] of 0.1 s⁻¹.

Regarding CBS-myoglobin, the koff (EDTA) with TAT-CaM (HIV; human) [6] was found to be 0.09 s⁻¹. In the assay with TAT-CaM (HIV; human) [7], this substance gave a Kd of 0.9 nM, a koff of 5.5e-05 s⁻¹ and a kon of 59000 M⁻¹ s⁻¹. The same substance registered a koff (EDTA) in the assay with TAT-CaM (HIV; human) [8] of 0.1 s⁻¹.

“endothelial nitric oxide synthase (enzyme)”: in the assay with TAT-CaM (HIV; human) [9], the dissociation constant Kd amounted to 15 nM, the koff is 0.00018 s⁻¹ and the kon was 12000 M⁻¹ s⁻¹.

For the substance TAT-CaM 2.0 (from UniProt P0DP23 2-149), the values for the koff (EDTA) with CBS-myoglobin [3] and in the assay with CBS-myoglobin [4] were 0.17 s⁻¹ and 0.1 s⁻¹, respectively. The substance further registered a kon with CBS-myoglobin [5] of 4900 M⁻¹ s⁻¹.

Substance “CBS-HRP (from UniProt P00433 31-338) (enzyme)” returned a koff (EDTA) in the assay with TAT-CaM (HIV; human) [6] of 0.2 s⁻¹. In the assay with TAT-CaM (HIV; human) [7], this substance displayed a Kd of 160 nM, an off-rate (koff) of 0.00028 s⁻¹ and a kon of 1700 M⁻¹ s⁻¹. In addition, the koff (EDTA) with TAT-CaM (HIV; human) [8] was determined as 0.1 s⁻¹.

The substance SAP(E)-CaM showed a koff (EDTA) with CBS-myoglobin [3] of 0.2 s⁻¹. Besides, the koff (EDTA) in the assay with CBS-myoglobin [4] came to 0.1 s⁻¹. Further, in the assay with CBS-myoglobin [5], the dissociation constant Kd was 13.3 nM, the koff amounted to 0.00013 s⁻¹ and the kon was found to be 9400 M⁻¹ s⁻¹.

As a reminder, the kon is the second-order rate constant of association. One may read the Kd as the free concentration of one partner at which half of the binding sites on the other are occupied at equilibrium, for simple one-to-one binding. The koff is a measure of how fast the partners let go of each other. High values mean a short-lived complex, low ones a long-lived complex.
